No end group written: not given here.
Legend:
[1] = linear peptides, low and neutral pH; cited from earlier work
[2] = Confocal microscopy of vesicles in 5,6-carboxyfluorescein solution; format: physicochemical; conditions: single peptide alone
Experimental: About 25 μL of the sample was then mounted on a glass slide and covered with a coverslip and sealed. The slides were allowed to sit for 48-72 hours before pictures were taken using a confocal microscope. Upon sitting in the unbuffered 5,6-carboxyfluorescein solution for 48 hours, larger spherical entities than observed with TEM are formed, which can be seen with the light microscope. Specifically, in FIG. 7, peptides bis(h5)-K-K4 and bis(h9)-K-K4 at a 1:1 molar ratio when added to DDI water form larger vesicles on the order of 2-10 μm in diameter. […] The vesicles in this figure are large enough to have fluorescently-labeled peptide aggregates trapped within the vesicles.

[3] = test system: Human Lens Epithelial (HLE) cells; test: Uptake of 5,6-carboxyfluorescein-loaded peptide vesicles by cells, fluorescence microscopy; format: cell-based; conditions: 12 hours of incubation, 37° C.
Experimental: Human Lens Epithelial (HLE) cells were obtained from Dr. Dolores Takemoto's lab (Kansas State University). These adherent cells were grown to roughly 80% confluence on coverslips placed in 12 well plates with 1 ml Dulbecco's Modified Eagle Medium (DMEM), Stock solutions of bis(h9)-K-K4 and bis(h5)-K-K4 dissolved in DDI water were mixed together using the protocol described in Example 4 to achieve a final concentration of 0.025 mM of each peptide in the mixture and 600 μL final volume. The sample was then dried by spinning in a speed vacuum for about 3 hours until almost all of the solvent was removed. The dried sample was then rehydrated with a 0.5 mM solution of the fluorescent dye 5,6-carboxyfluorescein (MW=376.3 Da) dissolved in DDI water. The pH of the sample was adjusted to 7.4 using a dilute solution of NaOH. Next, 500 μL of the DMEM was replaced with the peptide vesicle solution loaded with 5,6-carboxyfluorescein. The cells were then allowed to grow at 37° C. under 5% CO2. At 4 hours and 12 hours after incubation with dye-loaded vesicles, the cells were washed twice with phosphate buffered saline (PBS) and fixed using 0.4% paraformaldehyde. The fixed cells were then mounted on a glass slide and pictures were taken using a fluorescence microscope. […]

[4] = Sedimentation analysis (analytical ultracentrifugation), N-acetyl capped peptides; format: physicochemical; conditions: 1 mM, DDI water, pH 7, 40,000 rpm, 20° C.
Experimental: In this procedure, N-acetyl capped peptides were prepared using the protocol described in Example 1 above and subjected to analytical ultracentrifugation for sedimentation analysis. Three different samples were prepared from bis(h5)-K-K4 alone, bis(h9)-K-K4 alone, and a 1:1 molar ratio mixture of the two peptides, each with a final peptide concentration of 1 mM dissolved in DDI water and pH adjusted to 7 using a dilute solution of NaOH. For the analyses, 350 μL of each sample was loaded into a Beckman XL-I Analytical Ultracentrifuge cell and spun at 40,000 rpm for 3 hours at 20° C., with data collected using interference optics. The raw data was then processed using DCDT+2.2.1 software to obtain g(s*) distribution. Theoretical distribution (sum of individual peptide distribution) was obtained using OriginLab v. 7.0 software.

KKKFLIVIKKK [Linear FLIVI flanked by three lysine groups, from earlier studies (US 2009/0105449)]
vesicle formation [1]: do not form vesicles

bis(h5)-K-K4: Branched amphipathic peptide: two FLIVI (SEQ ID NO: 4) tails on a branch lysine, KKKK C-terminal carboxyamide
ability of the peptide by itself to form vesicle structures [2]: unable to form these structures

5,6-carboxyfluorescein [free fluorescent dye]
cellular uptake of dye [3]: hardly any uptake of the dye

KKKFLIVIGSIIKKK [Linear … flanked by three lysine groups, from earlier studies (US 2009/0105449)]
vesicle formation [1]: do not form vesicles

N-acetyl capped bis(h9)-K-K4: bis(h9)-K-K4 with the N-termini of both hydrophobic tails capped with an acetyl group (chain 1 Ac-FLIVIGSIIKKKKK-NH2; chain 2 Ac-FLIVIGSII; also: branched: chain 2 tail attached to branch lysine K10 of chain 1, linkage amine not given here)
apparent S value [4]: ~10 S

N-acetyl capped bis(h5)-K-K4: bis(h5)-K-K4 with the N-termini of both hydrophobic tails capped with an acetyl group (chain 1 Ac-FLIVIKKKKK-NH2; chain 2 Ac-FLIVI; also: branched: chain 2 tail attached to branch lysine K6 of chain 1, linkage amine not given here)
apparent S value [4]: around 6 S

bis(h9)-K-K4: Branched amphipathic peptide: two FLIVIGSII (SEQ ID NO: 3) tails on a branch lysine, KKKK C-terminal carboxyamide
ability of the peptide by itself to form vesicle structures [2]: able to form these vesicle-like structures
stability of vesicle-like structures formed by the peptide alone [2]: somewhat unstable and rapidly fuse to produce the larger structures

Source: US8883967B2, “Branched amphipathic oligo-peptides that self-assemble into vesicles” (Kansas State University Research Foundation, priority 2009, dated 2014)
